Data published in patent US20210198366A1 (NGM BIOPHARMACEUTICALS, published 2021).

T1: human B7-H7 expressed on the cell surface (human, UniProt Q9UM44 23-414)
T1 construct: also called hB7-H7; HHLA2
T1 sequence: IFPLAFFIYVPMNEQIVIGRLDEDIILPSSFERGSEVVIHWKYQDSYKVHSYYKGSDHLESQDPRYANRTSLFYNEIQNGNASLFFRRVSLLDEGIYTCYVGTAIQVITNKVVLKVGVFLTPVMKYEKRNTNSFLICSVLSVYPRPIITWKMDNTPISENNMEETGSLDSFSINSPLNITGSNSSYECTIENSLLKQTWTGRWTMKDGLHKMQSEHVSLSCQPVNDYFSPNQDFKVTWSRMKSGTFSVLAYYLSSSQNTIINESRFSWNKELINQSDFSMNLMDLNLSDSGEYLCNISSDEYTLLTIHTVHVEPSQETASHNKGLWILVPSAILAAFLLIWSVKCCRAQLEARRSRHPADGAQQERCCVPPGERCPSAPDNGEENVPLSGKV

T2: human B7-H7 (soluble analyte in SPR) (human, UniProt Q9UM44 23-344, limits assumed)
T2 sequence: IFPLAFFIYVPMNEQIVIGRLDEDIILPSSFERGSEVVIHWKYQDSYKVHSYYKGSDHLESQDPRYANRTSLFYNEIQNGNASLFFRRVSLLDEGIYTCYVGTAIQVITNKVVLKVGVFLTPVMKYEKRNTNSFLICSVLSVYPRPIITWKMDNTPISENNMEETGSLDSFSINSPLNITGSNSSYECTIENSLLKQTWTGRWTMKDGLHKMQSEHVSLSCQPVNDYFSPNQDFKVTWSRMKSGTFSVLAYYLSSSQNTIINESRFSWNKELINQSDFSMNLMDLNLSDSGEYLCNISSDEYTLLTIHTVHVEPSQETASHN

B1: soluble human B7-H7-Fc fusion protein (extracellular region of human B7-H7, aa 23-344, and a human Fc sequence) (Fc fusion, not shown: a dimerising Fc or GST)
chain: T2 sequence
notes: also called hB7-H7-Fc; soluble B7-H7
B2: soluble biotinylated KIR3DL3 ECD (receptor)
chain: QDKPFLSAWPGTVVSEGQHVTLQCRSRLGFNEFSLSKEDGMPVPELYNRIFRNSFLMGPVTPAHAGTYRCCSSHPHSPTGWSAPSNPVVIMVTGVHRKPSLLAHPGPLVKSGETVILQCWSDVRFERFLLHREGITEDPLRLVGQLHDAGSQVNYSMGPMTPALAGTYRCFGSVTHLPYELSAPSDPLDIVVVGLYGKPSLSAQPGPTVQAGENVTLSCSSRSLFDIYHLSREAEAGELRLTAVLRVNGTFQANFPLGPVTHGGNYRCFGSFRALPHAWSDPSDPLPVSVTGNSRHL
modifications: biotinylated (site not stated)
notes: also called soluble biotinylated KIR3DF3 ECD (so in the source); soluble KIR3DL3
B3: anti-B7-H7 antibody 2D7 (antibody, V domains shown)
VH: EVQLQQSGPELVKPGASVKISCKTSGYTFTEYTMHWVKQSHGKSLEWIGGINPNNYGAPYNQKFKGKATLTVDKSSNTAYMELRSLTSEDSAIYYCASGGYYFDYWGQGTTLTVSS
VL: DIVMTQSHKFMSTSFGDRVSITCKASQDVGTAVAWYQQKLGQSPKLLISWAFTRHTGVPDRFTGSGSGTDYTLTISSLQAEDLALYYCQQHYDTPFTFGSGTKLEIK
notes: Parental mouse hybridoma antibody raised against human B7-H7-Fc

Tests used:
[1] = biological target: T3, human KIR3DL3 expressed on the cell surface (human, UniProt Q8N743 26-410); test: cell-based fluorescence assay (CellInsight): soluble B7-H7-Fc titrated on HEK-293T cells transfected with KIR3DL3, Alexa Fluor 488 anti-human Fc detection; soluble B7-H7-Fc on KIR3DL3-transfected cells
T3 construct: also called cells expressing human KIR3DL3
Experimental: (§1) The molecule CD28H has previously been identified as a receptor of B7-H7 (Zhu et al., 2013, Nature Communications, ncomms3043; Zhu et al. refer to B7-H7 as “B7-H5”). Studies by the inventors have identified KIR3DL3 as a second receptor for B7-H7. HEK-293T cells were transiently transfected with a KIR3DL3 construct. 40,000 cells were aliquoted into each well of a 384-well plate and were transfected with 200 ng of plasmid DNA encoding KIR3DL3 using Lipofectamine™ 2000 (ThermoFisher Scientific). After 48 hours, soluble B7-H7-Fc (serially diluted from 10 to 0.16 pg/ml) was added to the wells and plates were incubated from one hour at room temperature. An Alexa Fluor® 488-labeled anti-human Fc secondary antibody was added to the wells and plates were incubated for one hour at room temperature. Cells were washed with HBSS and fixed for 15 minutes with 7.4% formalin in PBS. Cells were washed with PBS and the fluorescence signals were detected using a CellInsight™ platform (ThermoFisher Scientific). A similar experiment was conducted with cells transiently transfected with a B7-H7 construct and soluble biotinylated KIR3DF3 ECD. An Alexa Fluor® 488-labeled streptavidin was used for detection.

[2] = biological target: T1, human B7-H7 expressed on the cell …; test: cell-based fluorescence assay (CellInsight): soluble biotinylated KIR3DL3 ECD on cells transfected with B7-H7, Alexa Fluor 488 streptavidin detection; soluble biotinylated KIR3DL3 ECD on B7-H7-transfected cells
Experimental: as §1

[3] = biological target: B1; test: FACS competition: antibody titrated against soluble hB7-H7-Fc binding to HEK-293 cells expressing human KIR3DL3
Experimental: (§2) Exemplary anti-B7-H7 antibodies identified by ELISA and FACS were tested for their ability to block binding of soluble B7-H7 to receptors KIR3DL3 or CD28H in a FACS assay. HEK-293 cells were transiently transfected with a construct encoding (i) a membrane-bound KIR3DL3 protein or (ii) a membrane-bound CD28H protein. After 48 hours, transfected cells were suspended in ice cold PBS containing 1% FBS and 0.1% sodium azide and incubated on ice in the presence of […]/ml of soluble human B7-H7-Fc protein and antibodies 2D7, 1D3, 28F3, 16D5, 2F10, 5F7, 5B10, 5C9, or 3H6 (serially diluted from […] to 4.6 ng/ml). A second incubation with an anti-human Fc secondary antibody was performed to detect cells bound by the soluble B7-H7-Fc. The cells were analyzed on a BD FACSCalibur instrument (BD Biosciences) and the data was processed using FlowJo software. Calculated IC50s are shown Table 12.

[4] = biological target: T2, human B7-H7 (soluble analyte in SPR); test: SPR (Biacore)
Experimental: (§3) The binding affinities of exemplary anti-B7-H7 antibodies to human B7-H7 and cyno B7-H7 were measured using SPR technology (Biacore system, GE Healthcare Life Sciences). Briefly, anti-Fc antibody (Sigma-Aldrich) was immobilized on all four flow cells of a CM5 chip using amine coupling reagents (GE Healthcare LifeSciences). Exemplary antibodies were captured on flow cells 2, 3, and 4 using flow cell 1 as a reference. Human B7-H7 or cyno B7-H7 (samples ranging from 0.62-40 nM) were injected at a flow rate of 50 μL/min at 37° C. Kinetic data were collected over time and fit using the simultaneous global fit equation to yield affinity constants (KD values) for each antibody.
The binding affinity of Hz2D7 to human B7-H7 and cyno B7-H7 was determined using SPR technology (Biacore system) as described herein and compared with the binding affinity of the parental antibody and with a chimeric 2D7 antibody comprising the murine heavy chain and light chain variable regions of 2D7 and a human Fc region.

[5] = biological target: T1, human B7-H7 expressed on the cell …; test: cell-based or functional assay
[6] = biological target: T2, human B7-H7 (soluble analyte in SPR); test: SPR (Biacore), antibody captured by anti-Fc on CM5 chip, B7-H7 injected, 37 C
Experimental: as §3

[7] = biological target: B1; test: FACS competition: antibody titrated against soluble hB7-H7-Fc binding to HEK-293 cells expressing human CD28H
Experimental: as §2

Binder: B1
Kd [1]: 15 nM

Binder: B2
Kd [2]: 192 nM

Binder: B3
IC50 [3]: 2 nM | Kd [4]: < 0.1 nM | koff [4]: 1e-05 s⁻¹ | Induction of NK-92 cytotoxicity EC50 [5]: 1 nM | Kd [6]: < 0.1 nM | IC50 [7]: 2.1 nM
